Literature values in article PMC3409362.
Like-named read-outs stand apart in the source and are kept apart here.

Experiments:
[1] = target: F-actin (Oryctolagus cuniculus) (UniProt P68135)
[2] = target: F-actin (Oryctolagus cuniculus) (UniProt P68135); remark: listed apart in the source

Kd [1] | Kd [2] | Substance
150 nM |  | V-ATPase B1 subunit (from UniProt P15313)
 | 150 nM | V-ATPase B2 subunit (from UniProt P21281)
